Experimental data: publication PMC4948710

Key:
[1] = target: Nematostella vectensis β-catenin, full length (Nematostella vectensis); assay: ITC
[2] = target: F-actin polymerised from chicken muscle G-actin (chicken) (UniProt P68139); assay: co-sedimentation

Substance: Nematostella vectensis Cadherin-1 cytoplasmic region (domain or fragment)
- Kd [1]: 7.9 nM

Substance: Nematostella vectensis Cadherin-2 cytoplasmic region (domain or fragment)
- Kd [1]: 1.3 nM

Substance: Nematostella vectensis α-catenin lacking the insert (residues 638-1,021 deleted) (domain or fragment)
- Kd [2]: > 12000 nM

Substance: Nematostella vectensis α-catenin, full length (natural protein)
- Kd [2]: 800 nM
